Experiments:
[1] = biological target: T1, MBP-Ync13-(591–1130)-6His (S. pombe, UniProt O13683 591-1130); assay: pull-down; Kd by depletion of the supernatant: various concentrations of MBP-Ync13 proteins immobilised on amylose beads with a fixed low concentration of Pmo25-(19–329)-6His, 1 h at 4°C; supernatant on SDS-PAGE, Coomassie Blue; one site binding equation; details: both partners purified
T1 construct: The cloning of this fragment is not described; not shown: MBP, N-terminal, kept; His6, C-terminal, kept
T1 sequence (looked up): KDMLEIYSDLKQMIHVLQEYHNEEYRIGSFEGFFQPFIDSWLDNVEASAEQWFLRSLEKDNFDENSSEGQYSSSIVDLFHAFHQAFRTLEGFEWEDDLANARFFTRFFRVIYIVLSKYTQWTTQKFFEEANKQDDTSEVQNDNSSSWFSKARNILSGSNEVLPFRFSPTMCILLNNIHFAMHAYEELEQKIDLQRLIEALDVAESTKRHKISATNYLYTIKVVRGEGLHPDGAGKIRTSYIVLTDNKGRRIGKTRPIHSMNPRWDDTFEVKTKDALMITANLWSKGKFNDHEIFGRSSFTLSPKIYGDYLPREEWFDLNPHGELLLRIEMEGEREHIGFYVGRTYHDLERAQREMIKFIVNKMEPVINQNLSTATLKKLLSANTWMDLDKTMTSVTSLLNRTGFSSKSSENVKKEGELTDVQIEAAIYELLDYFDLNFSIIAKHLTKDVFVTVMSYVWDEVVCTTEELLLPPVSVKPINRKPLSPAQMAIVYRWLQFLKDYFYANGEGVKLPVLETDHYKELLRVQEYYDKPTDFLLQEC

[2] = biological target: T2, MBP-Ync13-full length-6His (S. pombe, UniProt O13683 1-1237); assay: as above; details: both partners purified
T2 construct: cloned in pET21a-MBP between the MBP-TEV-GGSGGS fragment and the C-terminal 6xHis tag; A TEV site and a GGSGGS linker stand between MBP and Ync13; also called MBP-tagged full length Ync13; not shown: MBP, N-terminal, kept; His6, C-terminal, kept
T2 sequence (looked up): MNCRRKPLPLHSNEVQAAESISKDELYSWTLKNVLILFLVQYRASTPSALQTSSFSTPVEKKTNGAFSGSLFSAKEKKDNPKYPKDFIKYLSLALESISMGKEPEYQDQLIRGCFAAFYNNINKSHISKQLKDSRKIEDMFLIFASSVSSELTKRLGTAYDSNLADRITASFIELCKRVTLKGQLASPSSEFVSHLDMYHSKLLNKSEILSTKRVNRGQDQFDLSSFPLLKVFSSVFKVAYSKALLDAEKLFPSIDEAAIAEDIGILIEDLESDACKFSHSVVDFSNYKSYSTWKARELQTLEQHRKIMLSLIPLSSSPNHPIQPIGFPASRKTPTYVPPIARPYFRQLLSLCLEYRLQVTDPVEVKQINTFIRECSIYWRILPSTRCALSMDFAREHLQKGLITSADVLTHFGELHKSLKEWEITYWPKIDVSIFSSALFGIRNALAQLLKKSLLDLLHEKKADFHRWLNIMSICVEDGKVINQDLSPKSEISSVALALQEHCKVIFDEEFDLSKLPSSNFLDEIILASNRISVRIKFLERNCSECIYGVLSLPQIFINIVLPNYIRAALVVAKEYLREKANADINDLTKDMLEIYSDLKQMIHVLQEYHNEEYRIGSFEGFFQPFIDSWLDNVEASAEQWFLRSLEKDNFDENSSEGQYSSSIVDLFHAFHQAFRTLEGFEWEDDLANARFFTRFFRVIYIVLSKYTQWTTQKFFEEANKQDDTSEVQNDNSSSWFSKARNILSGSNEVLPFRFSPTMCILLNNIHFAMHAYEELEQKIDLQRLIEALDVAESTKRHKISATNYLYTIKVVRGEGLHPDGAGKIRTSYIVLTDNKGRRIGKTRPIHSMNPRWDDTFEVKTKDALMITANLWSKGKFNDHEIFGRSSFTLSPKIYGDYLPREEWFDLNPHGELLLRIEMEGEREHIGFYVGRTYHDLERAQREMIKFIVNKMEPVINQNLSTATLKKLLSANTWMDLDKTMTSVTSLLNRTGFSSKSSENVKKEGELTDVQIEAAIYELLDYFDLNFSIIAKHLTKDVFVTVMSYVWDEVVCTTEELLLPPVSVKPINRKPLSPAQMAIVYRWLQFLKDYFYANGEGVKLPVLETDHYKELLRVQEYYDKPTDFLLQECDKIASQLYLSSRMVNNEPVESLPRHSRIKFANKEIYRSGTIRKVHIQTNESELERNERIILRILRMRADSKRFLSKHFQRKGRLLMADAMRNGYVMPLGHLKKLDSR

Kd [1]: 620 nM
Kd [2]: 490 nM
B1: Pmo25-(19–329)-6His (domain or fragment, S. pombe, UniProt Q9P7Q8 19-329, looked up)
chain: LCDNLPKLEINNDKKKSFEEVSKCLQNLRVSLCGTAEVEPDADLVSDLSFQIYQSNLPFLLVRYLPKLEFESKKDTGLIFSALLRRHVASRYPTVDYMLAHPQIFPVLVSYYRYQEVAFTAGSILRECSRHEALNEVLLNSRDFWTFFSLIQASSFDMASDAFSTFKSILLNHKSQVAEFISYHFDEFFKQYTVLLKSENYVTKRQSLKLLGEILLNRANRSVMTRYISSAENLKLMMILLRDKSKNIQFEAFHVFKLFVANPEKSEEVIEILRRNKSKLISYLSAFHTDRKNDEQFNDERAFVIKQIERL
notes: in pET21a between the N-terminal T7 tag and the C-terminal 6xHis tag; not shown: His6, C-terminal, kept
